Test results from US20120316071A1 (published 2012).
Numbering of substitutions follows the chain as printed. Names may count otherwise. Values belong to the binder of their own block, whether it stands above or below them.

Tests used:
[1] = target: T1, rHuman P-Cadherin/Fc Chimera, CF (R&D Systems Cat#861-PC) (human, UniProt P22223 108-654); experiment: ECL Multispot (MSD), antigen spotted on plate, Fab in solution; blank spot 292
[2] = target: T2, rHuman HGF R/c-MET/Fc Chimera, CF (R&D Systems Cat#358-MT/CF) (human, UniProt P08581 25-932); experiment: as above
[3] = target: T3, rHuman Notch-1/Fc Chimera, CF (R&D Systems Cat#3647-TK) (human); experiment: as above
T3 chain: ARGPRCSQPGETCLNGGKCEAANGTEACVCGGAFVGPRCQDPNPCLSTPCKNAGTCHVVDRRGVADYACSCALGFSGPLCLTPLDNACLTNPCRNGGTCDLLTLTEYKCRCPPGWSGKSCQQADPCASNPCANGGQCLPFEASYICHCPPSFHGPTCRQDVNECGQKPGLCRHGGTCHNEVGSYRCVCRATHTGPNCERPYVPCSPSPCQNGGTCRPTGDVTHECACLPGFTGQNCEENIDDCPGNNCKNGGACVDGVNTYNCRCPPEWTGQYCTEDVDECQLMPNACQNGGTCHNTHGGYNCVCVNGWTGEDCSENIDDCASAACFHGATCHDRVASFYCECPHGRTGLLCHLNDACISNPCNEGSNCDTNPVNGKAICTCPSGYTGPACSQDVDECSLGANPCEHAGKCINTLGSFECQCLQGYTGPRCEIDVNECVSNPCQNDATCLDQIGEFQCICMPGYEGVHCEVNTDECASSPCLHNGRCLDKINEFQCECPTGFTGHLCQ

[4] = target: T4, rHuman Erythropoietin R/Fc Chimera, CF (R&D Systems Cat#963-ER) (human, UniProt P19235 25-250); experiment: as above
[5] = target: T5, rHuman CD44/Fc Chimera, CF (R&D Systems Cat#3660-CD) (human, UniProt P16070 21-220); experiment: as above
[6] = target: T6, rHuman Erythropoietin R/Fc Chimera, CF (R&D Systems Cat#963-ER) (human, UniProt P19235 25-250); experiment: MSD ECL multispot assay, antigen spotted on plate, Fab in solution; blank spot of this row 166
T6 construct: Bought recombinant protein; also called EPO R; EPO R/Fc; not shown: Fc of the bought chimera
T6 sequence (looked up): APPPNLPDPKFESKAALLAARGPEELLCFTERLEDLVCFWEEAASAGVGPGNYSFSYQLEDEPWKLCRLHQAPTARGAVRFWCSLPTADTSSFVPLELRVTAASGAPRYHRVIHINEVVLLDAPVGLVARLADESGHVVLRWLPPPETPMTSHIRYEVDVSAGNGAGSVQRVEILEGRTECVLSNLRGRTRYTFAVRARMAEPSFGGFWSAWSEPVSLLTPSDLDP

[7] = target: T7, rHuman P-Cadherin/Fc Chimera, CF (R&D Systems Cat#861-PC) (human, UniProt P22223 108-654); experiment: as above
T7 construct: Bought recombinant protein; not shown: Fc of the bought chimera

[8] = target: T8, rHuman HGF R/c-MET/Fc Chimera, CF (R&D Systems Cat#358-MT/CF) (human, UniProt P08581 25-932); experiment: as above
T8 construct: Bought recombinant protein; also called HGF R/Fc; not shown: Fc of the bought chimera

[9] = target: T9, rHuman Notch-1/Fc Chimera, CF (R&D Systems Cat#3647-TK) (human, UniProt P46531 19-526); experiment: as above
T9 construct: Bought recombinant protein; not shown: Fc of the bought chimera

[10] = target: T10, Recombinant Human DLL4 (R&D Systems Cat#1506-D4/CF) (human, UniProt Q9NR61 27-524); experiment: as above
T10 construct: Bought recombinant protein; also called delta-like protein 4; rHuman DLL4

[11] = target: T11, rHuman IGF-1 sR (insulin-like growth factor-1 soluble receptor), CF (R&D Systems Cat#391-GR) (human, UniProt P08069 31-932); experiment: as above
T11 construct: Bought recombinant soluble receptor

[12] = target: T12, rHuman CD44/Fc Chimera, CF (R&D Systems Cat#3660-CD) (human, UniProt P16070 21-220); experiment: as above
T12 construct: Bought recombinant protein; not shown: Fc of the bought chimera

[13] = target: T1, rHuman P-Cadherin/Fc Chimera, CF (R&D …); experiment: ECL Multispot (MSD), antigen spotted on plate, Fab in solution; blank spot 200
[14] = target: T2, rHuman HGF R/c-MET/Fc Chimera, CF (R&D …); experiment: as above
[15] = target: T3, rHuman Notch-1/Fc Chimera, CF (R&D …); experiment: as above
[16] = target: T4, rHuman Erythropoietin R/Fc Chimera, CF …; experiment: as above
[17] = target: T5, rHuman CD44/Fc Chimera, CF (R&D Systems …); experiment: as above
[18] = target: T13, rHuman EGF R/Fc Chimera, CF (R&D Systems Cat#344-ER) (human, UniProt P00533 25-645); experiment: MSD ECL multispot assay, antigen spotted on plate, Fab in solution; blank spot of this row 255
T13 construct: Bought recombinant protein; not shown: Fc of the bought chimera

[19] = target: T14, rHuman ErbB2/Fc Chimera, CF (R&D Systems Cat#1129-ER) (human, UniProt P04626 23-652); experiment: as above
T14 construct: Bought recombinant protein; not shown: Fc of the bought chimera

[20] = target: T6, rHuman Erythropoietin R/Fc Chimera, CF …; experiment: as above
[21] = target: T7, rHuman P-Cadherin/Fc Chimera, CF (R&D …); experiment: as above
[22] = target: T8, rHuman HGF R/c-MET/Fc Chimera, CF (R&D …); experiment: as above
[23] = target: T9, rHuman Notch-1/Fc Chimera, CF (R&D …); experiment: as above
[24] = target: T11, rHuman IGF-1 sR (insulin-like growth …); experiment: as above
[25] = target: T12, rHuman CD44/Fc Chimera, CF (R&D Systems …); experiment: as above
[26] = target: T1, rHuman P-Cadherin/Fc Chimera, CF (R&D …); experiment: ECL Multispot (MSD), antigen spotted on plate, Fab in solution; blank spot 169
[27] = target: T2, rHuman HGF R/c-MET/Fc Chimera, CF (R&D …); experiment: as above
[28] = target: T3, rHuman Notch-1/Fc Chimera, CF (R&D …); experiment: as above
[29] = target: T4, rHuman Erythropoietin R/Fc Chimera, CF …; experiment: as above
[30] = target: T5, rHuman CD44/Fc Chimera, CF (R&D Systems …); experiment: as above
[31] = target: T1, rHuman P-Cadherin/Fc Chimera, CF (R&D …); experiment: ECL Multispot (MSD), antigen spotted on plate, Fab in solution; blank spot 241
[32] = target: T3, rHuman Notch-1/Fc Chimera, CF (R&D …); experiment: as above
[33] = target: T4, rHuman Erythropoietin R/Fc Chimera, CF …; experiment: as above
[34] = target: T5, rHuman CD44/Fc Chimera, CF (R&D Systems …); experiment: as above

- ECL signal [1]: 354
- ECL signal [2]: 242
- ECL signal [3]: 346
- ECL signal [4]: 391
- ECL signal [5]: 282
B1: Fab VH1-46_IGHD6-6*01_IGHJ1*01 S102A/S103P/S104F/H111F (APFF) & L6_IGKJ1*01 S92P (Fab, V domains shown)
VH: QVQLVQSGAEVKKPGASVKVSCKASGYTFTSYYMHWVRQAPGQGLEWMGIINPSGGSTSYAQKFQGRVTMTRDTSTSTVYMELSSLRSEDTAVYYCAREEYAPFSAEYFQFWGQGTLVTVSS
VL: EIVLTQSPATLSLSPGERATLSCRASQSVSSYLAWYQQKPGQAPRLLIYDASNRATGIPARFSGSGSGTDFTLTISSLEPEDFAVYYCQQRPNWPPWTFGQGTKVEIKR
notes: also called APFF / S92P

- ECL signal [13]: 296
- ECL signal [14]: 187
- ECL signal [15]: 369
- ECL signal [16]: 333
- ECL signal [17]: 309
B3: Fab VH1-46_IGHD6-6*01_IGHJ1*01 S102A/S103P/S104F/H111F (APFF) & L6_IGKJ1*01 W94L (Fab, V domains shown)
VH: B1 VH
VL: B1 VL with P92S, W94L
notes: also called APFF / W94L

- ECL signal [18]: 332
- ECL signal [19]: 282
- ECL signal [20]: 330
- ECL signal [21]: 340
- ECL signal [22]: 373
- ECL signal [23]: 351
- ECL signal [24]: 246
- ECL signal [25]: 312
B4: Fab VH1-46_IGHD6-6*01_IGHJ1*01 S102A/S103P/S104F/H111F (APFF) & L6_IGKJ1*01 S92Q (Fab, V domains shown)
VH: B1 VH
VL: B1 VL with P92Q
notes: Fab; also called APFF / S92Q

More lines, now with the values behind:

B2: Fab VH1-46_IGHD6-6*01_IGHJ1*01 S102A/S103P/S104F/H111F (APFF) & L6_IGKJ1*01 S92P (Fab, V domains shown)
VH: B1 VH
VL: B1 VL
notes: Fab; also called APFF / S92P
- ECL signal [6]: 385
- ECL signal [7]: 307
- ECL signal [8]: 256
- ECL signal [9]: 328
- ECL signal [10]: 446
- ECL signal [11]: 280
- ECL signal [12]: 292

B5: Fab VH1-46_IGHD6-6*01_IGHJ1*01 S102A/S103P/S104F/H111F (APFF) & L6_IGKJ1*01 W94P (Fab, V domains shown)
VH: B1 VH
VL: B1 VL with P92S, W94P
notes: also called APFF / W94P
- ECL signal [26]: 268
- ECL signal [27]: 275
- ECL signal [28]: 228
- ECL signal [29]: 292
- ECL signal [30]: 241

B6: Fab VH1-46_IGHD6-6*01_IGHJ1*01 S102A/S103P/S104F/H111F (APFF) & L6_IGKJ1*01 W94M (Fab, V domains shown)
VH: B1 VH
VL: B1 VL with P92S, W94M
notes: also called APFF / W94M
- ECL signal [31]: 346
- ECL signal [32]: 321
- ECL signal [33]: 435
- ECL signal [34]: 327
